Molecular target: Lysosomal Ras-associated protein 7a (RAB7A), recombinant mouse protein (mouse, UniProt P51150 1-207)
Assay: SPR

Sequence of Lysosomal Ras-associated protein 7a (RAB7A), recombinant mouse protein (P51150 whole entry): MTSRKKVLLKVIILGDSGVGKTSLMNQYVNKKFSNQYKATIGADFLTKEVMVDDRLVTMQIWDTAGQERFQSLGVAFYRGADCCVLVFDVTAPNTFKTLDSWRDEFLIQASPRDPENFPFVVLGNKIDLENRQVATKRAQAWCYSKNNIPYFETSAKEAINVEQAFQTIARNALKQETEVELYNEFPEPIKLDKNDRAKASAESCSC

Kd: 31.8 nM
B1: Sirtuin 5 (SIRT5), recombinant mouse protein (enzyme)
chain: SSNMADFRKCFANAKHIAIISGAGVSAESGVPTFRGAGGYWRKWQAQDLATPQAFARNPSQVWEFYHYRREVMRSKEPNPGHLAIAQCEARLRDQGRRVVVITQNIDELHRKAGTKNLLEIHGTLFKTRCTSCGTVAENYRSPICPALAGKGAPEPETQDARIPVDKLPRCEEAGCGGLLRPHVVWFGENLDPAILEEVDRELALCDLCLVVGTSSVVYPAAMFAPQVASRGVPVAEFNMETTPATDRFRFHFPGPCGKTLPEALAPHETERTS
